# Experimental data as given in article PMC4022456, “Phosphorylation of a WRKY Transcription Factor by MAPKs Is Required for Pollen Development and Function in Arabidopsis”.
# Target: WRKY34 (WT) (Arabidopsis thaliana, UniProt O65590 1-568)
# Assay: EMSA; competed by 250-fold unlabeled W-box tested; 20 mM HEPES pH 7.9, 50 mM KCl, 0.5 mM DTT, 0.1 mM EDTA, 0.1 ug/uL herring sperm DNA, room temperature 30 min; 1 ug protein, 2 pmol probe; 5% native PAGE, 0.5x TBE
# Details: protein: recombinant; label: 32P 5' end; blunt
# Chain of WRKY34 (WT) (O65590 whole entry): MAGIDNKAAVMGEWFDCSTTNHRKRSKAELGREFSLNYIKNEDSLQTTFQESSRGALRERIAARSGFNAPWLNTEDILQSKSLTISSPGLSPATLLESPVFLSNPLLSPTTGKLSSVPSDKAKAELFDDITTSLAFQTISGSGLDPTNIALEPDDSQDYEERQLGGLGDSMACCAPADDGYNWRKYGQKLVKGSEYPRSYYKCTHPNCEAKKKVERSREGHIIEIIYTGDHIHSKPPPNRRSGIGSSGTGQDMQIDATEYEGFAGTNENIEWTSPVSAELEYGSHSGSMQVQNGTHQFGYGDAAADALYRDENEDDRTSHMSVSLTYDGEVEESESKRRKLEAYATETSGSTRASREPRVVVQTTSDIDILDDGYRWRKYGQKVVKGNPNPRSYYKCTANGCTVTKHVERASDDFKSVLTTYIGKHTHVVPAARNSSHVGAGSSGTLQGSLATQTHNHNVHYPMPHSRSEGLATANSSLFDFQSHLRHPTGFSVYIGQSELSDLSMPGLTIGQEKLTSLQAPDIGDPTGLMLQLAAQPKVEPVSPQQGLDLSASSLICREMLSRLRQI
binder,measurement,value
W-box probe (three W boxes) (dsDNA) DNA 1: CGTTGACCGTTGACCGAGTTGACTTTTTA DNA 2: TAAAAAGTCAACTCGGTCAACGGTCAACG,binding result,binds
